Measurements published in patent US20240182536A1 (MURAL ONCOLOGY, published 2024).

T1: human IL-18 binding protein (human, UniProt O95998 31-194)
T1 sequence (looked up): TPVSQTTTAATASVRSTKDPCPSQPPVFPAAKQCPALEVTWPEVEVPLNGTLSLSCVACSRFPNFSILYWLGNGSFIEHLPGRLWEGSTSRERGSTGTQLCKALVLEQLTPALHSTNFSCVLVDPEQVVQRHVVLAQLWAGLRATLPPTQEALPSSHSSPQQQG

T2: IL-18 receptors on HEK-Blue IL-18 reporter cells (UniProt Q13478 19-541; O95256 20-599, limits assumed)
T2 sequence (looked up) 1: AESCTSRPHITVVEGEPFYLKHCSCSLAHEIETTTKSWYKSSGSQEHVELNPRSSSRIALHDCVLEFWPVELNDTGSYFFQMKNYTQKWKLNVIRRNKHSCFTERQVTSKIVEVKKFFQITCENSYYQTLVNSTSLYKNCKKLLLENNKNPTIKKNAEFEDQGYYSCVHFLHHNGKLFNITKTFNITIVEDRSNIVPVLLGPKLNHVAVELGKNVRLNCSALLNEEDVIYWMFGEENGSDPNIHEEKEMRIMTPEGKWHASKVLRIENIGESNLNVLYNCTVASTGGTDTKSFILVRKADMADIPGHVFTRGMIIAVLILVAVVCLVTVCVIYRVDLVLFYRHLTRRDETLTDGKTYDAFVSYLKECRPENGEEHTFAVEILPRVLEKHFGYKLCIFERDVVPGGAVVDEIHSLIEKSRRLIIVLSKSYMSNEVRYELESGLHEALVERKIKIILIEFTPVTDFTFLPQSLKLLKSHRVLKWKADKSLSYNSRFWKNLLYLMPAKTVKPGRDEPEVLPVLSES
T2 sequence (looked up) 2: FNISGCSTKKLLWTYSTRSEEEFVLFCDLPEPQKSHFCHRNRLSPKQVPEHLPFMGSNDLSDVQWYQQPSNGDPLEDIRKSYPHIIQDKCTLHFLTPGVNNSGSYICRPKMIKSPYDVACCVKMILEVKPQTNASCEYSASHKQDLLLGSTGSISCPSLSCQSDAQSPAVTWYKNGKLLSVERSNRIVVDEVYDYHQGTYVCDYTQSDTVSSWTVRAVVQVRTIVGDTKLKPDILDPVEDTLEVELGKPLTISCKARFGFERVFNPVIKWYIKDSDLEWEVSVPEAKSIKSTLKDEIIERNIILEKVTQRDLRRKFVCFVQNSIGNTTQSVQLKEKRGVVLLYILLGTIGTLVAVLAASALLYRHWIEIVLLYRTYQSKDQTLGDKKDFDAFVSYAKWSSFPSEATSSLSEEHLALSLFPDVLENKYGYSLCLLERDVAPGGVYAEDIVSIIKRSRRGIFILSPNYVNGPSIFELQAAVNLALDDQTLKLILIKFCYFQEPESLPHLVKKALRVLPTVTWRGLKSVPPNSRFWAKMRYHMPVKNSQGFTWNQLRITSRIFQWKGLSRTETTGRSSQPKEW

B1: yeast display IL-18 variant L5W, I22M, K53N, S55Y, Q56H (ligand)
chain: YFGKWESKLSVIRNLNDQVLFMDQGNRPLFEDMTDSDMRDNAPRTIFIISMYNDYHPRGMAVTISVKSEKISTLSSENKIISFKEMNPPDNIKDTKSDIIFFQRSVPGHDNKMQFESSSYEGYFLASEKERDLFKLILKKEDELGDRSIMFTVQNED
B2: yeast display IL-18 variant K53W, S55A (ligand)
chain: YFGKLESKLSVIRNLNDQVLFIDQGNRPLFEDMTDSDMRDNAPRTIFIISMYWDAQPRGMAVTISVKSEKISTLSSENKIISFKEMNPPDNIKDTKSDIIFFQRSVPGHDNKMQFESSSYEGYFLASEKERDLFKLILKKEDELGDRSIMFTVQNED
B3: yeast display IL-18 variant K53G, S55I (ligand)
chain: YFGKLESKLSVIRNLNDQVLFIDQGNRPLFEDMTDSDMRDNAPRTIFIISMYGDIQPRGMAVTISVKSEKISTLSSENKIISFKEMNPPDNIKDTKSDIIFFQRSVPGHDNKMQFESSSYEGYFLASEKERDLFKLILKKEDELGDRSIMFTVQNED
B4: yeast display IL-18 variant K53T, S55F (ligand)
chain: YFGKLESKLSVIRNLNDQVLFIDQGNRPLFEDMTDSDMRDNAPRTIFIISMYTDFQPRGMAVTISVKSEKISTLSSENKIISFKEMNPPDNIKDTKSDIIFFQRSVPGHDNKMQFESSSYEGYFLASEKERDLFKLILKKEDELGDRSIMFTVQNED
B5: yeast display IL-18 variant K53D, S55N (ligand)
chain: YFGKLESKLSVIRNLNDQVLFIDQGNRPLFEDMTDSDMRDNAPRTIFIISMYDDNQPRGMAVTISVKSEKISTLSSENKIISFKEMNPPDNIKDTKSDIIFFQRSVPGHDNKMQFESSSYEGYFLASEKERDLFKLILKKEDELGDRSIMFTVQNED
B6: yeast display IL-18 variant E6D, S36F, K53T, S55M, R58K (ligand)
chain: YFGKLDSKLSVIRNLNDQVLFIDQGNRPLFEDMTDFDMRDNAPRTIFIISMYTDMQPKGMAVTISVKSEKISTLSSENKIISFKEMNPPDNIKDTKSDIIFFQRSVPGHDNKMQFESSSYEGYFLASEKERDLFKLILKKEDELGDRSIMFTVQNED
B7: yeast display IL-18 variant T34I, S36T, D40A, N41M, K53T, S55Y (ligand)
chain: YFGKLESKLSVIRNLNDQVLFIDQGNRPLFEDMIDTDMRAMAPRTIFIISMYTDYQPRGMAVTISVKSEKISTLSSENKIISFKEMNPPDNIKDTKSDIIFFQRSVPGHDNKMQFESSSYEGYFLASEKERDLFKLILKKEDELGDRSIMFTVQNED
B8: yeast display IL-18 variant K53G, S55V (ligand)
chain: YFGKLESKLSVIRNLNDQVLFIDQGNRPLFEDMTDSDMRDNAPRTIFIISMYGDVQPRGMAVTISVKSEKISTLSSENKIISFKEMNPPDNIKDTKSDIIFFQRSVPGHDNKMQFESSSYEGYFLASEKERDLFKLILKKEDELGDRSIMFTVQNED
B9: yeast display IL-18 variant K53H, S55V (ligand)
chain: YFGKLESKLSVIRNLNDQVLFIDQGNRPLFEDMTDSDMRDNAPRTIFIISMYHDVQPRGMAVTISVKSEKISTLSSENKIISFKEMNPPDNIKDTKSDIIFFQRSVPGHDNKMQFESSSYEGYFLASEKERDLFKLILKKEDELGDRSIMFTVQNED
B10: yeast display IL-18 variant K53N, S55I (ligand)
chain: YFGKLESKLSVIRNLNDQVLFIDQGNRPLFEDMTDSDMRDNAPRTIFIISMYNDIQPRGMAVTISVKSEKISTLSSENKIISFKEMNPPDNIKDTKSDIIFFQRSVPGHDNKMQFESSSYEGYFLASEKERDLFKLILKKEDELGDRSIMFTVQNED

Experiments:
[1] = molecular target: T1, human IL-18 binding protein; test: cell-based or functional assay
[2] = molecular target: T2, IL-18 receptors on HEK-Blue IL-18 …; test: cell-based or functional assay

Binder	HEK-Blue activity, +100 nM BP, DF-10000 [1]	HEK-Blue activity, +100 nM BP, DF-100,000 [1]	HEK-Blue activity, +100 nM BP, DF-1,000,000 [1]	Ratio (-BP/+BP), DF-10000 [1]	Ratio (-BP/+BP), DF-100,000 [1]	Ratio (-BP/+BP), DF-1,000,000 [1]	HEK-Blue activity, No BP, DF-10000 [2]	HEK-Blue activity, No BP, DF-100,000 [2]	HEK-Blue activity, No BP, DF-1,000,000 [2]
B1	0.72	0.23	0.21	1.05	0.91	0.61	0.75	0.21	0.13
B2	0.31	0.16	0.13	0.89	0.84	0.84	0.28	0.13	0.11
B3	0.76	0.19	0.13	0.77	0.73	0.7	0.59	0.14	0.09
B4	0.6	0.18	0.25	1.12	1.09	0.64	0.67	0.2	0.16
B5	0.47	0.12	0.09	0.95	1.05	1	0.45	0.13	0.09
B6	0.5	0.14	0.09	0.96	1.02	0.96	0.48	0.14	0.09
B7	0.37	0.12	0.12	1.03	1.45	1.18	0.38	0.18	0.14
B8	0.57	0.15	0.1	0.98	1.01	1.03	0.56	0.15	0.1
B9	1.05	0.34	0.14	1.53	2.79	2.31	1.6	0.94	0.33
B10	0.29	0.11	0.09	1.1	1	0.99	0.32	0.11	0.09
